Experimental data taken from patent publication US7977317B2, “Compositions and methods for modulating blood-brain barrier transport” (Raptor Pharmaceutical Inc., priority 2001, dated 2011).

What was measured:
[1] = target: LRP (Homo sapiens, UniProt Q07954); details: Tables 1-3; cited from earlier work
[2] = target: Megalin (Homo sapiens, UniProt P98164); details: Tables 1-3; cited from earlier work
[3] = target: VLDL-R (Homo sapiens, UniProt P98155); details: Tables 1-3; cited from earlier work
[4] = tested on: human brain capillaries; assay: Accumulation/uptake of [125I]-p97 in isolated human brain capillaries; assay type: binding
Experimental: FIG. 5. Accumulation of p97 in human brain capillaries. Accumulation of [^125I]-p97 was measured at 37° C. for 1 h in isolated human brain capillaries (100 μg/assay). The incubation medium contained [^125I]-p97 and a final concentration of 100 nM p97 in Ringer/Hepes solution. The accumulation of [^125I]-p97 was performed in the presence or absence of 5 μm cold-p97, holo-transferrin or lactoferrin. […] The suspension was filtered under vacuum through a […] pore size Millipore filter. The filter was rinsed with 8 ml of stop solution, and the radioactivity was counted. Nonspecific binding of the radioactivity to the capillaries was determined by the addition of the ice-cold stop solution to the capillaries before adding the incubation medium. This value was subtracted from accumulation values obtained following an 1 h incubation. The results were expressed as ng of [^125I]-p97 accumulated per μg of brain capillaries.
FIG. 16 illustrates the identification of a p97 receptor according to ligand specificity. FIG. 16a, Uptake of [^125I]-p97 into human brain capillaries. The uptake of [^125I]-p97 at 100 nM (control) into isolated human brain capillaries was measured for 1 h at 37° C. in the presence of a 50-fold molar excess of unlabelled p97, human holo-transferrin or human lactoferrin. (*[…] Student's t-test (n=5); FIG. 16b, Effect of RAP on [^125I]-p97 transcytosis across BBCEC monolayers. Apical-to-basal transport of [^125I]-p97 was measured in the presence (closed circles) or absence (open circles) of RAP (25 μg/ml) (n=5); FIG. 16c, Inhibition of bovine [^125I]-lactoferrin transport by p97. Transcytosis of bovine [^125I]-lactoferrin (50 nM) was measured in the presence (closed circles) or absence (open circles) of unlabelled p97 (5 μM) at 37° C. (n=3).
A. Isolation of human brain capillaries. Capillaries of the blood-brain barrier were isolated from human brain cortex by a procedure previously described by Dallaire, et al., J. Biol. Chem., 267:22323-22327 (1992) with slight modifications. Human brains were obtained post-mortem. The brain was cleared of meninges, superficial large blood vessels and choroid plexus. All the following procedures were performed at 4° C. The cerebral cortex was homogenized in 5 volumes of Ringer/Hepes solution with a Polytron (Brinkman Instruments, Rexdale, Ontario, Canada). The homogenate was mixed with an equal volume of Dextran T-70 (27 g in 100 ml of Ringer/Hepes). The suspension was centrifuged at 25,000 g for 10 min. The pellet was resuspended in 30 ml of Ringer/Hepes and passed through a 250 μm nylon mesh screen. […]
B. p97 accumulation in human brain capillaries. […] Accumulation of [^125I]-p97 was measured at 37° C. for 1 h in isolated human brain capillaries (100 μg/assay). […]

[5] = tested on: BBCEC monolayers; assay: Transcytosis across BBCEC monolayers (in vitro BBB model); assay type: cell-based, bovine
From the text: FIG. 10 assesses the ability of several agents to interfere with p97 transyctosis. FIG. 10a, transcytosis of I125-P97 was compared in the presence of cold p97 (5 micromolar), Lf (5 micromolar), and Tf (5 micromolar). […] FIG. 10c, RAP, a known poly-peptide inhibitor of the LDL-Receptor family was applied to the cells (25 micrograms/ml).
FIG. 11 examines the accumulation and transcytosis of p97. FIG. 11a, of [^125I]-p97, [^125I]-BSA and [^125I]-holo-transferrin one hour after i.v. injection. The radioactivity in brain was compared between the three compounds. (n=3); FIG. 11b, Accumulation of p97 and transferrin into the mouse brain parenchyma. In situ brain perfusion was performed with human [^125I]-p97 or [^125I]-holo-transferrin at a final concentration of 10 nM via a catheter inserted in the right common carotid artery. The volume of distribution (VD) of [^125I]-proteins were obtained in the whole brain homogenate (white bars), in brain capillaries (solid bars) and in brain parenchyma (hatched bars) after isolation of the right hemisphere and capillary depletion. Results were obtained for p97 (n=10) and for holo-transferrin (n=6); FIG. 11c, Transcytosis of p97 across BBCEC monolayers. Transcytosis experiments were performed 37° C. (open circles) and 4° C. (closed circles) with BBCEC monolayers. [^125I]-p97 (1 mg/ml) was added to the upper side of the cell-covered filter. One representative experiment is shown (n=4); FIG. 11d, Preferential transport of p97 across the BBCEC monolayers. Apical-to-basal and basal-to-apical transport of [^125I]-p97 (25 nM) was measured for 2 hrs at 37° C. At the end of the experiment, [^125I]-p97 was assessed in the lower or upper chambers of each well by TCA precipitation (n=4).
FIG. 13 illustrates the transcytosis and accumulation of p97 and transferrin in BBCEC monolayers. FIG. 13a, Transcytosis experiments were performed at 37° C. (solid bars) or 4° C. (white bars). [^125I]-p97 or bovine [^125I]-holo-transferrin (1 mg/ml) was added to the upper side of the cell-covered filter. At the end of the experiment, radiolabelled proteins were measured in the lower chamber of each well by TCA precipitation (n=4). Controls were also performed at 37° C. with denatured [^125I]-p97 or bovine [^125I]-holo-transferrin boiled for 30 min (grey bars) (n=2); FIG. 13b, Biospecific interaction analysis was performed with native or boiled p97 for the indicated times. MAb L235 (5 μg) was immobilized on a sensor chip (SM5) using standard procedures incorporating NHS, EDC and ethanolamine. Native and boiled p97 (5 to 30 min) diluted at 1 mg/ml in Ringer/Hepes was cooled and injected into the BIAcore. The surface plasmon resonance response obtained for native p97 and boiled p97 was plotted (in relative units (RU)) as a function of time; FIG. 13c, The accumulation of both proteins into BBEC cells were also measured. Briefly, after incubation at 37° C. (solid bars) or 4° C. (white bars) with either [^125I]-protein, cells were washed four times with cold PBS. Accumulation of both denatured proteins (grey bars) was also measured at 37° C. Filters were then removed, and the radioactivity associated with the cells was quantified (n=3).
FIG. 14 illustrates the stability of p97 and integrity of the BBCEC monolayers following p97 transcytosis. FIG. 14a, Transcytosis experiments were performed at 37° C. and 4° C. by adding p97 (1 mg/ml) to the upper compartment. At the end of the experiment, 50 μl from each lower chamber was used for SDS-polyacrylamide gel electrophoresis. After electrophoresis, the gels were stained with Coomassie Blue. A standard curve was also made with known amounts of recombinant p97 (0-2 μg); FIG. 14b. The gels were dried and scanned to quantify the amount of intact p97 that crossed the BBCEC monolayers at 37° C. and 4° C. (n=3); FIG. 14c, Effect of p97 on sucrose permeability of BBCE cell monolayers co-cultured with astrocytes. […]

[6] = target: T1, ER-2 (Homo sapiens, UniProt Q14114); details: Tables 1-3; cited from earlier work
T1 sequence (Q14114 33-963): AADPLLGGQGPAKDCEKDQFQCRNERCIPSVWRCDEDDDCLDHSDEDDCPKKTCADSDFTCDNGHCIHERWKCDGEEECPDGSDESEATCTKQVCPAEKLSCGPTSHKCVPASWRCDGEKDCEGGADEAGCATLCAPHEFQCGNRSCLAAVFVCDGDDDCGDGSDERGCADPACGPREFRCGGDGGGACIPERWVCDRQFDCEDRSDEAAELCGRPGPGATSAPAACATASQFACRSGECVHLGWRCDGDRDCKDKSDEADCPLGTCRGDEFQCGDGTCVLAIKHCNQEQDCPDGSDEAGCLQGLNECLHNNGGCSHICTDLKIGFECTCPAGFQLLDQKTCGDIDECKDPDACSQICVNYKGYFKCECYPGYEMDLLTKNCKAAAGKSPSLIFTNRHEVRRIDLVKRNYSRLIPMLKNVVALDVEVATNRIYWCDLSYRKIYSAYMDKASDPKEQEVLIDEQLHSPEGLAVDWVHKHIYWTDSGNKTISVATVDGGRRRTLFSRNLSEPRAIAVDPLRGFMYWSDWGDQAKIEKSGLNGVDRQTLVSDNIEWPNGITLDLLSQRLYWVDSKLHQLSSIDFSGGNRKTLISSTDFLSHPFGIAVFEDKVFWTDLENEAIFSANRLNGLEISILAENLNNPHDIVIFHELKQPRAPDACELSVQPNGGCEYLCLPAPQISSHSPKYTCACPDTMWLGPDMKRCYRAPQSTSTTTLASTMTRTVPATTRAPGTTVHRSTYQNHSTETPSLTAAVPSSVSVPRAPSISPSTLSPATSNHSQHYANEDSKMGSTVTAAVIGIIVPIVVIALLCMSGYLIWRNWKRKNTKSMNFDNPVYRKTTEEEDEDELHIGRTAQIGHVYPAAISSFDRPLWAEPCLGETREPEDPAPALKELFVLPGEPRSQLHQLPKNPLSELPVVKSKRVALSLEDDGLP

[7] = target: LR11 (Homo sapiens, UniProt Q92673); details: Tables 1-3; cited from earlier work
[8] = target: LDL-R (Homo sapiens, UniProt P01130); details: Tables 1-3; cited from earlier work

LRP, sequence (Q07954 20-4544): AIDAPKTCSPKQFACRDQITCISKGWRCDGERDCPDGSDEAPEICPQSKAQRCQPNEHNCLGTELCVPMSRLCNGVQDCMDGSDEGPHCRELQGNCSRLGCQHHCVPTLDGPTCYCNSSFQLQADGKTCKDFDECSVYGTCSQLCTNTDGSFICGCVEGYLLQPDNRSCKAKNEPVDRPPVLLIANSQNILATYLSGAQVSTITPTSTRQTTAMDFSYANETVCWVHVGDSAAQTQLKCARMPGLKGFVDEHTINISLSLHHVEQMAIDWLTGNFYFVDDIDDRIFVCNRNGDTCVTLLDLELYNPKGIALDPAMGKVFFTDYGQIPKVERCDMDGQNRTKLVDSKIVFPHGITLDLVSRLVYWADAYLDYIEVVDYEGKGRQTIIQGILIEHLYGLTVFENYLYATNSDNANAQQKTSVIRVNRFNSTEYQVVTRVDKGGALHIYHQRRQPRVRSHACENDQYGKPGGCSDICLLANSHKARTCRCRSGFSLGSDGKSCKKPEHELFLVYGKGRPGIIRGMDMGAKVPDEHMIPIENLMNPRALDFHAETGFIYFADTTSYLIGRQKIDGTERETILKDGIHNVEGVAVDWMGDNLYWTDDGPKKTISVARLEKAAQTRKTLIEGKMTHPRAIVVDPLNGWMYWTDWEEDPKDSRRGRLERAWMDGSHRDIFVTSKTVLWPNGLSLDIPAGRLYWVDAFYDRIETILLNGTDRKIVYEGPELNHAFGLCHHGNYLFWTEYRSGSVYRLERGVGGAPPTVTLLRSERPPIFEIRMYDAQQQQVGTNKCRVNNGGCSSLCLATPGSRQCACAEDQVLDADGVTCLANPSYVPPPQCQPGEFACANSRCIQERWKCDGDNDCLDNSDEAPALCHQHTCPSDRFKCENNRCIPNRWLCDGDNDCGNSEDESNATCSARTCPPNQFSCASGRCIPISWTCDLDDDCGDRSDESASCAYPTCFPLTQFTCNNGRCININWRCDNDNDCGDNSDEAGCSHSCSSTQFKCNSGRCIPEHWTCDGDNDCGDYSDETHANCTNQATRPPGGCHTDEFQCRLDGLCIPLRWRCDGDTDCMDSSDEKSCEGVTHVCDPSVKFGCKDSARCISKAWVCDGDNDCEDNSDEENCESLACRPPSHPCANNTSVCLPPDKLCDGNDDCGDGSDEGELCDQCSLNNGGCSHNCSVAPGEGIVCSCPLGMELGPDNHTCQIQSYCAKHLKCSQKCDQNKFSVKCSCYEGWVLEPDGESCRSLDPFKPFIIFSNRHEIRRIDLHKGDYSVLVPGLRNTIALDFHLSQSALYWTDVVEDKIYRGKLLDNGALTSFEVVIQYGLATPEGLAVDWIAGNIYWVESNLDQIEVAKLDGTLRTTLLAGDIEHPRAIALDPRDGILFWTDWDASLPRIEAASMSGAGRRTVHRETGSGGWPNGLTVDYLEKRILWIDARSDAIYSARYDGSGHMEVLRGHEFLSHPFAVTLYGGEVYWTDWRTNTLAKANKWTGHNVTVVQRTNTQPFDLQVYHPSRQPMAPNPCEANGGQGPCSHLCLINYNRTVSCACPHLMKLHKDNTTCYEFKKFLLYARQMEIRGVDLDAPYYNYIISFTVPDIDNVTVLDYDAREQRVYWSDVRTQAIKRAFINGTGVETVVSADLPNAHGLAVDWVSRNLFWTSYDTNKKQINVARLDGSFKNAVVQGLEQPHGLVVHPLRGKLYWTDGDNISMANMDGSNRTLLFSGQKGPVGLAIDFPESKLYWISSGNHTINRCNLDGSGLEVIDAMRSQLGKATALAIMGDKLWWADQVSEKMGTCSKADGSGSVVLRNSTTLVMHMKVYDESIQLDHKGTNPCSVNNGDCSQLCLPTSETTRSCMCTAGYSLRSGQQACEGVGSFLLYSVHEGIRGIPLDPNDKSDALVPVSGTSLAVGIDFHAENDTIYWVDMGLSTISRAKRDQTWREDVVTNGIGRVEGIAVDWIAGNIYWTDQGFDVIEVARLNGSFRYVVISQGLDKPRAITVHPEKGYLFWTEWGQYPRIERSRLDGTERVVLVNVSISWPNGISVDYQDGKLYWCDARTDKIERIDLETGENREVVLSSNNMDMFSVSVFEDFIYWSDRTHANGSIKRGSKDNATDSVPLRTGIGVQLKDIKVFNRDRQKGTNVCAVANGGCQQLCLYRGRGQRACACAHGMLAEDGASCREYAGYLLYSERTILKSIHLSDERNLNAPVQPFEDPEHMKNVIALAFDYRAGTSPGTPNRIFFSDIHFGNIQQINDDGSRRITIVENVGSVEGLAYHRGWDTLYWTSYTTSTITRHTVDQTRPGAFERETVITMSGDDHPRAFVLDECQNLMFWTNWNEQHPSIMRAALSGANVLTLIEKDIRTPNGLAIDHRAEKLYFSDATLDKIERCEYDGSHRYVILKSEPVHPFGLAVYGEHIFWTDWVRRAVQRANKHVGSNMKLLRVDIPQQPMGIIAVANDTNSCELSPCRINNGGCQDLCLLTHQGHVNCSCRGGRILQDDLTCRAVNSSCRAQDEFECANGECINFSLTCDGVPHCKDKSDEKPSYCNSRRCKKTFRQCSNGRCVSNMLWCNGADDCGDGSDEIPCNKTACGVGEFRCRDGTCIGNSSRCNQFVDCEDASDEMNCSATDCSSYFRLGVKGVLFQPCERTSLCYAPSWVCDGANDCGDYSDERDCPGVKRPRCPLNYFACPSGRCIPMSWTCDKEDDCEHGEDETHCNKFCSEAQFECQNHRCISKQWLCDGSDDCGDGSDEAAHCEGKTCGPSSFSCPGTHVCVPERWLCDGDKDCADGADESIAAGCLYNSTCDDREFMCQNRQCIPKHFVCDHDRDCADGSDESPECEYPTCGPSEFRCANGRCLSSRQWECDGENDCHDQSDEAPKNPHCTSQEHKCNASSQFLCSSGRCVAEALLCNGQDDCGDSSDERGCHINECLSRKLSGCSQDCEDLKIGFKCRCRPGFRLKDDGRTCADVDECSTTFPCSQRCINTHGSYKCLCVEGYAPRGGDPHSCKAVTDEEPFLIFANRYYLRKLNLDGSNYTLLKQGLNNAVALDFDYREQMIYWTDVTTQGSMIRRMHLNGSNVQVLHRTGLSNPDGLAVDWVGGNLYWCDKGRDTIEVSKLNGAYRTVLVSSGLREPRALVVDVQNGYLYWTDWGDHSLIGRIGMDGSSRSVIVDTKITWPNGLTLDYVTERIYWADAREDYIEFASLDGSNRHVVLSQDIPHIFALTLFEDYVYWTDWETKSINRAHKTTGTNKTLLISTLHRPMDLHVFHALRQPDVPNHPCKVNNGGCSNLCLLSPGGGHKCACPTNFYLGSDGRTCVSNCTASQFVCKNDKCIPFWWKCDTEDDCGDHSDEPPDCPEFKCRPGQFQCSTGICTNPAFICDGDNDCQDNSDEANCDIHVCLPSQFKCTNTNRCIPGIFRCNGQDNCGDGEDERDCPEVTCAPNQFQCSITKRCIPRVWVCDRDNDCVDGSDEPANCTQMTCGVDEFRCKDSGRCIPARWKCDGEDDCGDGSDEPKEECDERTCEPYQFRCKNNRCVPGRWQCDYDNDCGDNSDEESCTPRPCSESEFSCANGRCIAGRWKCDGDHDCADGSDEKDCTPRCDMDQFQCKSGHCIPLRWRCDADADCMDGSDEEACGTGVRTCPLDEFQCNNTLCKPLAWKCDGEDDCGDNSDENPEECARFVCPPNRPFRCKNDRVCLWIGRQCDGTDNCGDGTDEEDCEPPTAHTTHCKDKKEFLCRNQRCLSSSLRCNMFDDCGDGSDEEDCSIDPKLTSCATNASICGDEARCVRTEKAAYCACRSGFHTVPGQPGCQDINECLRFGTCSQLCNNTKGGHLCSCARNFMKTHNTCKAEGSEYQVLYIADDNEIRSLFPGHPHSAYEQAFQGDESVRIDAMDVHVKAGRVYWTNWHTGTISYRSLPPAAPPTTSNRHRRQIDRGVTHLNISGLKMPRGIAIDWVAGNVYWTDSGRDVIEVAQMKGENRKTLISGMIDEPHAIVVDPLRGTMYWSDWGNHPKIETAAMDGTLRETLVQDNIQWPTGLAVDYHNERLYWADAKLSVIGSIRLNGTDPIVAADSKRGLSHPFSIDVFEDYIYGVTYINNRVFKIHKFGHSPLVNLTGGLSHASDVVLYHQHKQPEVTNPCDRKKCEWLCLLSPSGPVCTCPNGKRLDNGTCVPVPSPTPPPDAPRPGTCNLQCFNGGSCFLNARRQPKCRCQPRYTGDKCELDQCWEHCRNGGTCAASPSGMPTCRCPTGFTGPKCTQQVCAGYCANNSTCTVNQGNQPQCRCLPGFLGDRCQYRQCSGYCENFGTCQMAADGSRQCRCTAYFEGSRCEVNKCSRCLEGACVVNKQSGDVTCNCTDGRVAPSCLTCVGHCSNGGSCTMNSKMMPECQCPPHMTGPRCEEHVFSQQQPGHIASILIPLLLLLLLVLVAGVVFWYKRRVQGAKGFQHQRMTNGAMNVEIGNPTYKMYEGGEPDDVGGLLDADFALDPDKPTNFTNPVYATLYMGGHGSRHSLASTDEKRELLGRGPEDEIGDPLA

Substance | Binding to LRP [1] | Binding to Megalin [2] | also measured
α1-chymotrypsin/cathepsin G: protease/inhibitor complex | No | Yes | 
Polymixin B [reference compound] | Yes | Yes | 
Activated α2-macroglobulin: activated α2-macroglobulin | Yes | No | 
Thrombospondin-1: thrombospondin-1 | Yes |  | Binding to VLDL-R [3]: Yes
Tissue factor inhibitor: tissue factor inhibitor | Yes |  | 
βAPP: β-amyloid precursor protein | Yes |  | Binding to VLDL-R [3]: Yes
Gentamycin [reference compound] | Yes | Yes | 
ApoJ/clusterin: ApoJ/clusterin |  | Yes | 
β-amyloid peptide 1-40: β-amyloid peptide 1-40 [reference compound] |  |  | Competition with p97 for receptor binding in human brain capillaries, repeat experiment ([4]; performed identically to FIG. 5 (FIG. 6)): competes with p97 for receptor binding; Effect on transcytosis of 125I-p97 ([5]; competitor 5 micromolar (FIG. 10a, 10b)): failed to slow or reduce
Albumin |  | Yes | 
Thyroglobulin: thyroglobulin |  | Yes | Binding to ER-2 [6]: Yes; Binding to LR11 [7]: Yes
Pseudomonas Exotoxin A | Yes | No | 
ApoB100: apolipoprotein B 100 |  | Yes | Binding to LDL-R [8]: Yes
Plasminogen: plasminogen |  | Yes | 
human holo-transferrin: human holo-transferrin |  |  | Inhibition of the uptake of [125I]-p97 into isolated human brain capillaries ([4]; 50-fold molar excess, [125I]-p97 100 nM, 1 h at 37° C. (FIG. 16a)): had no effect; Reduction of apical-to-basal transport of [125I]-p97 ([5]; 200-fold molar excess of competitor, [125I]-p97 25 nM (FIG. 15a, 15b)): had no impact
ApoE: Apolipoprotein E | Yes | Yes | Binding to VLDL-R [3]: Yes; Binding to ER-2 [6]: Yes; Binding to LR11 [7]: Yes
tPA: tissue type plasminogen activator | Yes | Yes | 
